Results reported in patent US20060018919A1.
Ends that are not written are not given here.

Columns and labels:
[1] = target: target rabbit anti-LOS antibody; test: peptide ELISA, peptide coupled to NucleoLink strip, target antibody 0.4 ug/well
[2] = target: target rabbit anti-LOS antibody; test: capture ELISA, phage on coated antibody; OD over irrelevant rabbit antibody

B1: synthetic peptide 1 … with C-terminal GGGS spacer (peptide)
peptide: NMMRFTSQPPNNGGGS
modifications: also: coupled via C-terminal carboxyl to NucleoLink strips
[1]
  Binding reactivity (OD405): 0.4 OD405

B2: phage clone 2-15 (peptide, not shown: large carriers)
chain: NMMRFTELSTPSGGGS
[2]
  Fold rise of ELISA value: 1510 fold

B3: synthetic peptide 4 … with C-terminal GGGS spacer (peptide)
peptide: NMMRFTELSTPSGGGS
modifications: also: coupled via C-terminal carboxyl to NucleoLink strips
[1]
  Binding reactivity (OD405): 0.99 OD405

B4: synthetic peptide 5 … (control peptide from an unrelated clone) with C-terminal GGGS spacer (peptide)
peptide: TLAHHKKPWILRGGGS
modifications: also: coupled via C-terminal carboxyl to NucleoLink strips
[1]
  Binding reactivity (OD405): 0.33 OD405

B5: synthetic peptide 3 … with C-terminal GGGS spacer (peptide)
peptide: NMMKYISPPIFLGGGS
modifications: also: coupled via C-terminal carboxyl to NucleoLink strips
[1]
  Binding reactivity (OD405): 1.11 OD405

B6: synthetic peptide 2 … with C-terminal GGGS spacer (peptide)
peptide: NMMNYIMDPRTHGGGS
modifications: also: coupled via C-terminal carboxyl to NucleoLink strips
[1]
  Binding reactivity (OD405): 2.52 OD405
